Target: T1, human antithrombin β complexed with heparin (ATβH) (human, UniProt P01008 33-464, lacks glycosylation at Asn135 (β glyco-isoform); complexed with heparin; biotinylated on surface lysines for panning and ELISA)
T1 construct: mature; heparin is not a protein; also called human ATβH; hATβH
Assay: panning and screening of a human antibody library against human ATβ in complex with heparin
Source text: A four-arm panning strategy was designed to discover Fabs specifically against ATβH from a human Fab library (Dyax Fab310). The library was first depleted with biotinylated heparin/Fondaparinux-bound ATα and biotinylated ATα and then was panned against heparin/Fondaparinux-bound ATβ and biotinylated ATβ on streptavidin beads, respectively. For each round of panning, the heparin-bound ATα (ATαH) was included in the binding buffer as a competitor. To keep hATβ in active conformation (heparin bound form), heparin was added to the wash buffer in all three rounds of panning. After panning, pooled clones were screened for hATβ and hATβH specific binding and counter-screened for hATα by ELISA. These clones were also examined for differential binding to rabbit ATβ over rabbit ATα. […] Positive hits (Fabs) were reformatted into IgG1, expressed in HEK293 cells and purified by protein-A column. These purified IgG1s were extensively tested in AT-depleted human plasma and hemA patient plasma for TGA assay (Thrombin Generation Assay) and dPT (diluted Prothrombin Time) assay to measure the clotting time.

T1 sequence (P01008 33-464, one chain of several): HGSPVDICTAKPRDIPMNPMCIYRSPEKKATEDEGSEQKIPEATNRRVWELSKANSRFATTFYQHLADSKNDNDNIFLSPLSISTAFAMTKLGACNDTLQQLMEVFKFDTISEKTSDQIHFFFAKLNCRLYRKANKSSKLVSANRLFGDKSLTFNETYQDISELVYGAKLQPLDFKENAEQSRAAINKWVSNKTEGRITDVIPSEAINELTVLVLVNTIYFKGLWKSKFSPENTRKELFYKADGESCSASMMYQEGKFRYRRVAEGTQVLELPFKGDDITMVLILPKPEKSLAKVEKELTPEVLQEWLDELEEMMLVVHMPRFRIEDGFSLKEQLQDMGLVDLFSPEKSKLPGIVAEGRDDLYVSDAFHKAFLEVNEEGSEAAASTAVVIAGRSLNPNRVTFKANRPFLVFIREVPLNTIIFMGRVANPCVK

B1: TPP2009 hIgG1 (antibody, V domains shown)
VH: EVQLLESGGGLVQPGGSLRLSCAASGFTFSAYRMGWVRQAPGKGLEWVSRIYSSGGRTRYADSVKGRFTISRDNSKNTLYLQMNSLRAEDTAVYYCAREKASDLSGSFSEALDYWGQGTLVTVSS
VL: AQSVLTQDPAVSVALGQTVRITCQGDSLRSYYASWYQQKPGQAPVLVIYGKNNRPSGIPDRFSGSSSGNTASLTITGAQAEDEADYYCNSRDSSGNHLVFGGGTKLTVLG
binding result: binds

Source: US20140271660A1 (Bayer, published 2014)
